In doi:10.1101/2022.10.18.512691:

How the values were obtained:
[1] = target: APS-kinase from Methanothermococcus thermolithotrophicus (Methanothermococcus thermolithotrophicus); assay: crystal structure
[2] = target: ATP-sulfurylase from Methanothermococcus thermolithotrophicus (Methanothermococcus thermolithotrophicus); assay: SEC
[3] = target: ATP-sulfurylase from Methanothermococcus thermolithotrophicus (Methanothermococcus thermolithotrophicus); assay: crystal structure

stoichiometry N [1]	stoichiometry N [2]	stoichiometry N [3]	Substance
2	–	–	APS-kinase from Methanothermococcus thermolithotrophicus (enzyme)
–	2	2	ATP-sulfurylase from Methanothermococcus thermolithotrophicus (enzyme)
